Reference: article PMC12098740

Key:
[1] = biological target: Cinpanemab (BIIB-054); experiment: SPR
[2] = biological target: α-syn aggregates of PD patient brain (Homo sapiens (Human).) (UniProt P37840); experiment: ELISA
[3] = biological target: α-syn aggregates of MSA patient brain (Homo sapiens (Human).) (UniProt P37840); experiment: ELISA
[4] = biological target: Full length, human α-synuclein, recombinant monomer (Homo sapiens (Human).) (UniProt P37840); experiment: microfluidic diffusional sizing
[5] = biological target: human α-syn oligomers (ND Biosciences) (Homo sapiens (Human).) (UniProt P37840); experiment: microfluidic diffusional sizing

Substance	Kd [1] [pM]	EC50 [2] [pM]	EC50 [3] [pM]	Kd [4] [pM]	Kd [5] [pM]
Full length, human α-synuclein, recombinant monomer (from UniProt P37840 1-140) (natural protein)	> 100000	–	–	–	–
Lu AF82422 (amlenetug), monospecific wild type human IgG1 (antibody)	–	160	90	12000	300
